Molecular target: T1, Substrate No. 19
T1 chain: DEVD

B1: caspase-3 enzyme (Biovision Inc., Mountain View, Calif.) (protein)
chain: SGISLDNSYKMDYPEMGLCIIINNKNFHKSTGMTSRSGTDVDAANLRETFRNLKYEVRNKNDLTREEIVELMRDVSKEDHSKRSSFVCVLLSHGEEGIIFGTNGPVDLKKITNFFRGDRCRSLTGKPKLFIIQACRGTELDCGIETDSGVDDDMACHKIPVEADFLYAYSTAPGYYSWRNSKDGSWFIQSLCAMLKQYADKLEFMHILTRVNRKVATEFESFSFDATFHAKKQIPCIVSMLTKELYFYH
Q: How did the “fluorescence signal over time (excitation 485 nm, emission 530 nm) in the presence of dsDNA; enzymatic cleavage assay” value turn out when B1 was run?
A: The data demonstrates that Substrate No. 19 is a substrate for caspase-3 enzyme.

— patent US20140273151
